Patent US20160009804A1

Molecular target: vascular endothelial growth factor receptor-1 (VEGFR-1) (human) (UniProt P17948)
Experiment: cell-based or functional assay

Chain of UniProt P17948 (P17948 27-1338): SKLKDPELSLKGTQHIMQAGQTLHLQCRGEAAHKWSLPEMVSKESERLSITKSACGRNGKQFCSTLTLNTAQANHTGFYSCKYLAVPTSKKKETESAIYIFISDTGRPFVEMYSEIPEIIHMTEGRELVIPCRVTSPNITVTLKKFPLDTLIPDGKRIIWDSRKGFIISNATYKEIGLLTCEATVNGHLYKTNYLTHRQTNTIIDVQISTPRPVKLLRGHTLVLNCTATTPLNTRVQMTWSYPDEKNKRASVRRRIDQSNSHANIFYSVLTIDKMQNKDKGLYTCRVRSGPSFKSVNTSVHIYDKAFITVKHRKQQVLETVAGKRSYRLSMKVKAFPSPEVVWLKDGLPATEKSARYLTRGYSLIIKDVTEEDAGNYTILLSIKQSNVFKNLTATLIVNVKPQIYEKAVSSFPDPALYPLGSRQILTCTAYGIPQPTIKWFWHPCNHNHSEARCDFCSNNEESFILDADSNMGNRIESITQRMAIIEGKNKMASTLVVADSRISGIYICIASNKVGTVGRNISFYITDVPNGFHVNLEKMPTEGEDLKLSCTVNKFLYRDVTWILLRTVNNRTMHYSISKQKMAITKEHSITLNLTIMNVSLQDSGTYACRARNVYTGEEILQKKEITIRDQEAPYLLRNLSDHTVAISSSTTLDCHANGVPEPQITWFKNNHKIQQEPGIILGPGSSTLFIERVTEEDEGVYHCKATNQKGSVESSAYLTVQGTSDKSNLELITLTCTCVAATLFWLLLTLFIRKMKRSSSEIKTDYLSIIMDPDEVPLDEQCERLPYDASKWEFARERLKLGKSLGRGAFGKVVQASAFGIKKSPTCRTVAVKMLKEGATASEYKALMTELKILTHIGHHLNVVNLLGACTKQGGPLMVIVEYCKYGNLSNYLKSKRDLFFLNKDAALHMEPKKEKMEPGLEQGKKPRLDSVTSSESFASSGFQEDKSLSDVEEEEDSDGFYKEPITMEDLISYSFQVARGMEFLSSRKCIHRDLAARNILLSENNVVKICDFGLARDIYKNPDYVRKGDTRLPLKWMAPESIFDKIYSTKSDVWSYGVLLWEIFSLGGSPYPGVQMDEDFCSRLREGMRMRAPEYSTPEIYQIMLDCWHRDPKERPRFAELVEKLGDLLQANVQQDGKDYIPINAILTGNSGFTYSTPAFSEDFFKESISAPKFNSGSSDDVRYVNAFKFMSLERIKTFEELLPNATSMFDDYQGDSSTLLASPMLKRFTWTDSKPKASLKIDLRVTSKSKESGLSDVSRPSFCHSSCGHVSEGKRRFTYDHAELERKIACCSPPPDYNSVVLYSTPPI

isotype control mAb (antibody) gave a VEGF-induced CD144 expression (% of cells), isotype control mAb-treated human melanoma cells of 57%, a VEGF-induced tube formation, average tube length, isotype control mAb-treated of 86.5 µm and a VEGF-induced tube formation, numbers of tubes formed/microscopy field, isotype control mAb-treated (tubes/microscopy field) of 76.7.
Substance “vascular endothelial growth factor (VEGF) (from UniProt P15692 27-191) (ligand)” has a VEGF-induced CD144 expression (% of cells), untreated human melanoma cells of 64%, a VEGF-induced tube formation, average tube length, untreated of 92.1 µm and a VEGF-induced tube formation, numbers of tubes formed/microscopy field, untreated (tubes/microscopy field) of 99.
